Experimental data from patent publication US20210292396A1.

Key:
Assay in all cases: cell-based or functional assay
[1] = target: Env of HIV isolate BB539.2B13 (clade A) (HIV)
[2] = target: HIV Env of isolate TZBD.02 (HIV)
[3] = target: HIV Env of isolate CNE4 (HIV)
[4] = target: HIV Env of isolate Q461.e2 (HIV)
[5] = target: HIV Env of isolate CNE3 (HIV)
[6] = target: Env of HIV isolate ZM135.10a (clade C) (HIV)
[7] = target: HIV Env of isolate R3265.c6 (HIV)
[8] = target: Env of HIV isolate 3415.v1.c1 (clade A) (HIV)
[9] = target: Env of HIV isolate X1193.c1 (clade G) (HIV)
[10] = target: Env of HIV isolate JRFL.JB (clade B) (HIV)
[11] = target: HIV Env of isolate 0077.v1.c16 (HIV)
[12] = target: Env of HIV isolate BG505.W6M.C2 (clade A) (HIV)
[13] = target: HIV Env of isolate ZM176.66 (HIV)
[14] = target: Env of HIV isolate QH209.14M.A2 (clade A) (HIV)
[15] = target: HIV Env of isolate CNE5 (HIV)
[16] = target: Env of HIV isolate CNE4 (clade B) (HIV)
[17] = target: HIV Env of isolate 246-F3.C10.2 (HIV)
[18] = target: Env of HIV isolate T266-60 (clade AG) (HIV)
[19] = target: HIV Env of isolate 620345.c1 (HIV)
[20] = target: HIV Env of isolate TRJO.58 (HIV)
[21] = target: Env of HIV isolate CNE59 (clade AE) (HIV)
[22] = target: Env of HIV isolate Q461.e2 (clade AD) (HIV)
[23] = target: Env of HIV isolate ZM55.28a (clade C) (HIV)
[24] = target: Env of HIV isolate CNE56 (clade AE) (HIV)
[25] = target: HIV Env of isolate CH181.12 (HIV)
[26] = target: Env of HIV isolate T33-7 (clade AG) (HIV)
[27] = target: Env of HIV isolate 3326.v4.c3 (clade CD) (HIV)
[28] = target: HIV Env of isolate BJOX028000.10.3 (HIV)
[29] = target: Env of HIV isolate SC422.8 (clade B) (HIV)
[30] = target: HIV Env of isolate 6101.10 (HIV)
[31] = target: HIV Env of isolate QH209.14M.A2 (HIV)
[32] = target: HIV Env of isolate CNE58 (HIV)
[33] = target: HIV Env of isolate 3637.v5.c3 (HIV)
[34] = target: HIV Env of isolate KER2008.12 (HIV)
[35] = target: Env of HIV isolate T255-34 (clade AG) (HIV)
[36] = target: Env of HIV isolate CNE5 (clade AE) (HIV)
[37] = target: HIV Env of isolate CE703010217.B6 (HIV)
[38] = target: HIV Env of isolate ZM53.12 (HIV)
[39] = target: HIV Env of isolate 242-14 (HIV)
[40] = target: Env of HIV isolate T253-11 (clade AG) (HIV)
[41] = target: Env of HIV isolate ZM249.1 (clade C) (HIV)
[42] = target: Env of HIV isolate T251-18 (clade AG) (HIV)
[43] = target: HIV Env of isolate BJOX010000.06.2 (HIV)
[44] = target: Env of HIV isolate C4118.09 (clade AE) (HIV)
[45] = target: HIV Env of isolate ZM197.7 (HIV)
[46] = target: Env of HIV isolate ZM106.9 (clade C) (HIV)
[47] = target: HIV Env of isolate QH0692.42 (HIV)
[48] = target: Env of HIV isolate ZA012.29 (clade C) (HIV)
[49] = target: HIV Env of isolate BL01.DG (HIV)
[50] = target: Env of HIV isolate Q168.a2 (clade AD) (HIV)
[51] = target: HIV Env of isolate ZM135.10a (HIV)
[52] = target: Env of HIV isolate MS208.A1 (clade A) (HIV)
[53] = target: Env of HIV isolate SF162.LS (clade B) (HIV)

PGT121 (antibody)
IC50, pseudovirus neutralization [1]: > 50 µg/mL
IC80, pseudovirus neutralization [2]: 0.137 µg/mL
IC80 [3]: 25.3 µg/mL
IC80 [4]: > 50 µg/mL
IC80 [5]: > 50 µg/mL
IC50, pseudovirus neutralization [6]: 0.748 µg/mL
IC80 [7]: > 50 µg/mL
IC50, pseudovirus neutralization [8]: > 50 µg/mL
IC50, pseudovirus neutralization [9]: 0.0457 µg/mL
IC50, pseudovirus neutralization [10]: 0.0397 µg/mL
IC80, pseudovirus neutralization [11]: > 50 µg/mL
IC50, pseudovirus neutralization [12]: 0.0513 µg/mL
IC80, pseudovirus neutralization [13]: 27.6 µg/mL
IC50, pseudovirus neutralization [14]: > 50 µg/mL
IC80 [15]: > 50 µg/mL
IC50, pseudovirus neutralization [16]: 1.9 µg/mL
IC80 [17]: > 50 µg/mL
IC50, pseudovirus neutralization [18]: 0.143 µg/mL
IC80 [19]: > 50 µg/mL
IC80 [20]: 18.6 µg/mL
IC50, pseudovirus neutralization [21]: > 50 µg/mL
IC50, pseudovirus neutralization [22]: > 50 µg/mL
IC50, pseudovirus neutralization [23]: 0.0807 µg/mL
IC50, pseudovirus neutralization [24]: > 50 µg/mL
IC80, pseudovirus neutralization [25]: 0.083 µg/mL
IC50, pseudovirus neutralization [26]: > 50 µg/mL
IC50, pseudovirus neutralization [27]: > 50 µg/mL
IC80 [28]: > 50 µg/mL
IC50, pseudovirus neutralization [29]: 0.115 µg/mL
IC80 [30]: 0.0353 µg/mL
IC80 [31]: > 50 µg/mL
IC80, pseudovirus neutralization [32]: > 50 µg/mL
IC80, pseudovirus neutralization [33]: > 50 µg/mL
IC80 [34]: 6.55 µg/mL
IC50, pseudovirus neutralization [35]: 2.04 µg/mL
IC50, pseudovirus neutralization [36]: > 50 µg/mL
IC80, pseudovirus neutralization [37]: 0.0173 µg/mL
IC80, pseudovirus neutralization [38]: 0.00767 µg/mL
IC80 [39]: > 50 µg/mL
IC50, pseudovirus neutralization [40]: > 50 µg/mL
IC50, pseudovirus neutralization [41]: > 50 µg/mL
IC50, pseudovirus neutralization [42]: 3.05 µg/mL
IC80 [43]: > 50 µg/mL
IC50, pseudovirus neutralization [44]: > 50 µg/mL
IC80, pseudovirus neutralization [45]: > 50 µg/mL
IC50, pseudovirus neutralization [46]: 0.0127 µg/mL
IC80 [47]: 5.8 µg/mL
IC50, pseudovirus neutralization [48]: 0.0117 µg/mL
IC80 [49]: > 50 µg/mL
IC50, pseudovirus neutralization [50]: > 50 µg/mL
IC80, pseudovirus neutralization [51]: 3.69 µg/mL
IC50, pseudovirus neutralization [52]: > 50 µg/mL
IC50, pseudovirus neutralization [53]: 0.00733 µg/mL
